Earlier results on 10 substances are cited in article PMC2947981.

For data set [1], the target named is Factor VIIIa (Homo sapiens) (UniProt P00451).
The target is the same in data set [2]. This is another data set of the same source.
The target is the same in data set [3]. This is another data set of the same source.
For data set [4] the target is unchanged. This is another data set of the same source.
Data set [5] addresses Factor VIIIa2 A2 (Homo sapiens) (UniProt P00451).
For data set [6], the target named is Factor IXa (Homo sapiens) (UniProt P00740).
The target is the same in data set [7]. The source holds these as a separate data set.
The target is the same in data set [8]. The source holds these as a separate data set.
In data set [9] the target is Factor VIIIa A2 A2 (Homo sapiens) (UniProt P00451).
Data set [10] has as its target Corn trypsin inhibitor (CTI) (Zea mays) (UniProt P01088).
For data set [11], the target named is TFPI (Homo sapiens) (UniProt P10646).
Data set [12] shares this target. The source holds these as a separate data set.
Data set [13] addresses Factor Va (Homo sapiens) (UniProt P12259).
Data set [14] has as its target TFPI (Homo sapiens) (UniProt P10646). This is another data set of the same source.
The target of data set [15] is Factor Va (Homo sapiens) (UniProt P12259). The source holds these as a separate data set.
The target of data set [16] is Thrombin (IIa) (Homo sapiens) (UniProt P00734).
Data set [17] concerns the target Factor VIIa (Homo sapiens) (UniProt P08709).
A further data set has as its target Factor Xa (Homo sapiens) (UniProt P00742).
Data set [18] has as its target TFPI (Homo sapiens) (UniProt P10646). The source holds these as a separate data set.

Values joined by “and” are separate entries in the source; they are usually repeats but may differ in a detail not shown here. Identical values can stand only once. Like-named read-outs stand apart in the source and are kept apart here.

Sequence of UniProt P10646 (P10646 29-304): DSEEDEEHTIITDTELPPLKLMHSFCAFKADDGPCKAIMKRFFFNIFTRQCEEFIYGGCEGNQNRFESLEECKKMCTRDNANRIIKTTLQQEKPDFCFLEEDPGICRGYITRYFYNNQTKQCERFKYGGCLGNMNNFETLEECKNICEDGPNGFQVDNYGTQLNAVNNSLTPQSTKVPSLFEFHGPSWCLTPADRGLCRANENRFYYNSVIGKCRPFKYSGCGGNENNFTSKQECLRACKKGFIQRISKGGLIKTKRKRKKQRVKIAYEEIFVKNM
Sequence of UniProt P12259 (P12259 29-737, chain 1 of 2): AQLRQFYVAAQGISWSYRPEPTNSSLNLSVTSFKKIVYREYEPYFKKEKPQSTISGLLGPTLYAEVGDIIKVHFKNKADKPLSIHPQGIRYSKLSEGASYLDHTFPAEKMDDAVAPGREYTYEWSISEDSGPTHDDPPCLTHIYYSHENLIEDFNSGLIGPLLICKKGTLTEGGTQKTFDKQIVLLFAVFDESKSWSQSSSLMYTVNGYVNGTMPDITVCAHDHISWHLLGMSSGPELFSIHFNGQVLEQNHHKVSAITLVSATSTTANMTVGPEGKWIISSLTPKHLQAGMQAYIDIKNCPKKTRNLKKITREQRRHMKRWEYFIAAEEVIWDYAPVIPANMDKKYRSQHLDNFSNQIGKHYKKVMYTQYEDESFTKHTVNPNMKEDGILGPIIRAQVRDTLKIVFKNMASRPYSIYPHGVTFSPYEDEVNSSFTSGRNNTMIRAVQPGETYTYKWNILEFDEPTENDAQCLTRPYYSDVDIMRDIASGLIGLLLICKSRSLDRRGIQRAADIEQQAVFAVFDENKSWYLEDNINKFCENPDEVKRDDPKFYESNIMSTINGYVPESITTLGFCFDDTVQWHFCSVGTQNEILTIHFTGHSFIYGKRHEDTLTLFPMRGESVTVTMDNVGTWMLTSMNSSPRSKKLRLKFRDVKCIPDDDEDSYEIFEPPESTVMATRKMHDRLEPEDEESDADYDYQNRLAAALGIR
Sequence of UniProt P12259 (P12259 1574-2224, chain 2 of 2): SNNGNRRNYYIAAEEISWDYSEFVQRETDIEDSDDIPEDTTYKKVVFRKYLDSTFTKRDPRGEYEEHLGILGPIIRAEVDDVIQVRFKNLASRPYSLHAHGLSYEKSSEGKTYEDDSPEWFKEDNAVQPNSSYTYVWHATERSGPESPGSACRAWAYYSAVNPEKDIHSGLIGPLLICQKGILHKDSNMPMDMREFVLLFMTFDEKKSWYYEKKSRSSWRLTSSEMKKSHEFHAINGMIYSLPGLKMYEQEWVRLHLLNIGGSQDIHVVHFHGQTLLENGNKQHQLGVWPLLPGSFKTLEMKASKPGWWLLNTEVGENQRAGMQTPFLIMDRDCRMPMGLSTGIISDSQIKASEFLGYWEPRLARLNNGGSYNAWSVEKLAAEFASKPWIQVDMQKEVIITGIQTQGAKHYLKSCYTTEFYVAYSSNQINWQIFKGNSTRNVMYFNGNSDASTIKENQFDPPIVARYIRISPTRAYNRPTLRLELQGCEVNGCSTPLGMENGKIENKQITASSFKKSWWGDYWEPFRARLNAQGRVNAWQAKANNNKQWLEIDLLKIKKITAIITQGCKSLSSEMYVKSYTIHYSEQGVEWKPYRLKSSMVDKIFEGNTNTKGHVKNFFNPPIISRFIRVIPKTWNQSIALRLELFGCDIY
Sequence of Factor VIIIa (P00451 1668-2351): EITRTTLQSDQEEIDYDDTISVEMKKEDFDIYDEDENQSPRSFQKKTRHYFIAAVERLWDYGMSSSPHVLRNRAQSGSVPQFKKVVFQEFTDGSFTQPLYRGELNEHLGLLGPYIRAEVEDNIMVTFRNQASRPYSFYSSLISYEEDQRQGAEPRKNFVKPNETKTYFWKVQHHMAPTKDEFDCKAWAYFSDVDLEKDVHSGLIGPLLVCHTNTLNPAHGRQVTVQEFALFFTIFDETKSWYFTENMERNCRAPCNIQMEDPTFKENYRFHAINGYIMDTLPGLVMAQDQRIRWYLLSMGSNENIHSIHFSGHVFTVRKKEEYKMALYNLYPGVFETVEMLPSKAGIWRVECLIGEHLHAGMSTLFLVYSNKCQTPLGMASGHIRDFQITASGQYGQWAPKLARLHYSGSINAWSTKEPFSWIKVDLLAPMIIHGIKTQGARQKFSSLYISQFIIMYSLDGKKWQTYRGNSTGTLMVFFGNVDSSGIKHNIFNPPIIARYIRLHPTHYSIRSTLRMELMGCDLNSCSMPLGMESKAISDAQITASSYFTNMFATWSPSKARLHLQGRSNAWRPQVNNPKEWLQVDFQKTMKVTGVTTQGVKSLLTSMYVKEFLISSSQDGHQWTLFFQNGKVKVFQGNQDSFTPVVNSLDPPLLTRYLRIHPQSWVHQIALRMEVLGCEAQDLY
Sequence of UniProt P08709 (P08709 61-212, chain 1 of 2): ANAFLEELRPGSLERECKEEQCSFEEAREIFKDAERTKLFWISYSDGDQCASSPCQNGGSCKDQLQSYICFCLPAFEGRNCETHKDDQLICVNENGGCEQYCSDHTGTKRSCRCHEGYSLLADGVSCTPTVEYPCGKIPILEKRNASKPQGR
Sequence of UniProt P08709 (P08709 213-466, chain 2 of 2): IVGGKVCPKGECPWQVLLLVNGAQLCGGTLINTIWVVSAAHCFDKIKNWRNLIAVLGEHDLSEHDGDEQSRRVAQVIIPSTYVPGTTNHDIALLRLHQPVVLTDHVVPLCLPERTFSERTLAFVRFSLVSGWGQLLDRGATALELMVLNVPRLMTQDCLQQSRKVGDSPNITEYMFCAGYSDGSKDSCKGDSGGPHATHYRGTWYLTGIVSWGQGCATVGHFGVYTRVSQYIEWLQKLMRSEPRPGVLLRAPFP
Sequence of UniProt P01088 (P01088 29-138): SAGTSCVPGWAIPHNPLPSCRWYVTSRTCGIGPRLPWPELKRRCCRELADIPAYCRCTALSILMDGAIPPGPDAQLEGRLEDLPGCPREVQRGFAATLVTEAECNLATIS

As for Factor IXa (from UniProt P00740), the Kd in data set [1] was 351 nM; in data set [2] it was 0.074 nM; in data set [3], 4 nM; in [4], 0.55 nM. With “Factor VIIIa1-L A1-L (from UniProt P00451)”, the Kd in data set [5] was 270 nM. On to Factor VIIIa (from UniProt P00451), for which the figures for the Kd in data set [6], in [7] and in data set [8] were 0.074 nM, 0.55 nM and 4 nM, respectively. Consider “Factor VIIIa A1/A3-C1-C2 A1/A3-C1-C2 (from UniProt P00451)”, for which the Kd in data set [9] is 260 nM. Take Factor XIIa (from UniProt P00748): in data set [10], the Ki was 24 nM. On to Factor Xa (from UniProt P00742), for which the Kd in the data set with TFPI (Homo sapiens) [11] is 0.4 nM; with Factor Va (Homo sapiens) [13] it was 0.03 nM; in the data set with Factor Va (Homo sapiens) [15], 3.3 nM and 0.5 nM. The inhibition constant Ki with TFPI (Homo sapiens) [12] was 0.0652 nM; in the data set with TFPI (Homo sapiens) [14], 0.0852 nM. Regarding Fibrin II (Fbn2) (from UniProt P02671), the Kd in [16] was 10000 nM. Take GP1bα (from UniProt P07359): the Kd in data set [17] was 20 nM. For TF-VIIa complex (from UniProt P13726), in the data set with Factor Xa (Homo sapiens), the dissociation constant (Kd) is 860 nM. On to “TF-VIIa-Xa complex (from UniProt P13726)”, for which the Kd with TFPI (Homo sapiens) [18] is 0.00034 nM.

One may read the Kd as a measure of binding affinity in units of concentration. A word on the Ki: it is a dissociation constant, usually derived from enzyme kinetics or from competition with a known ligand.
